Reference: publication PMC10786891, “Massively parallel profiling of RNA-targeting CRISPR-Cas13d”

T1: EsCas13d, nuclease-dead (Eubacterium siraeum, UniProt B0MS50, R295A;H300A;R849A;H854A)
T1 sequence: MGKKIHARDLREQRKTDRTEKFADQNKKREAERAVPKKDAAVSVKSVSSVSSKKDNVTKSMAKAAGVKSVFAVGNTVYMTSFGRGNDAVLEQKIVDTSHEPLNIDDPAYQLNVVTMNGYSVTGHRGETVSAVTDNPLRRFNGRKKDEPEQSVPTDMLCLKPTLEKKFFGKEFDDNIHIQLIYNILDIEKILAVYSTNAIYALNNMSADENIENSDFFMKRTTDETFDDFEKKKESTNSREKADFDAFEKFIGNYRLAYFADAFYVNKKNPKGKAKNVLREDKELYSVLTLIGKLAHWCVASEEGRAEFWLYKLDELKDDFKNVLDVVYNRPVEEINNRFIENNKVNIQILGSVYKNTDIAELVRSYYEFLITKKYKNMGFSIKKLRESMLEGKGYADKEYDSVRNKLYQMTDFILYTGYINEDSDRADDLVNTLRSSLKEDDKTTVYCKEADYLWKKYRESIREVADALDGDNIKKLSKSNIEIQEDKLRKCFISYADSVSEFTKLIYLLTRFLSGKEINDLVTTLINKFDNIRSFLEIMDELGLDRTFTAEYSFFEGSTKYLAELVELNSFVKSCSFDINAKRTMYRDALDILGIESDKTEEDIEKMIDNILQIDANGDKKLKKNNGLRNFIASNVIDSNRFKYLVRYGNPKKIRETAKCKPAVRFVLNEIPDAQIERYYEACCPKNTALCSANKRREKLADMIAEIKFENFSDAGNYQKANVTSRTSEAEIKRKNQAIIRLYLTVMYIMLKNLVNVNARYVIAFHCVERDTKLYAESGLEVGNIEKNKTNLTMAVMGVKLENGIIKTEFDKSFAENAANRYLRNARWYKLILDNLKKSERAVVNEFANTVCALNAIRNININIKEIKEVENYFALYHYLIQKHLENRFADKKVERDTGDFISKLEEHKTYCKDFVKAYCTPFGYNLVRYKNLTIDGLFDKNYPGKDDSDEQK


molecular target: T1, EsCas13d, nuclease-dead; test: crRNA (strand 1, pre-loaded); Mg2+; 40 mM Tris-HCl pH 7.5, 150 mM NaCl, 6 mM MgCl2, 1 mM DTT, 0.1% Tween-20, 0.2 mg/ml BSA; 25 C; 10 min per concentration, then washed; settings: tags: His6-TwinStrep-SUMO cleaved; N-terminal SNAP kept (SNAP-Surface 488); label: 3' end held by stalled T7 RNA polymerase

Row | Binder | Kd [nM]
1 | target 3 insU 3' of 4,insA 3' of 3 (mixed) RNA 1: CACCCGUGCAAAAUUGCAGGGGUCUAAAACGACCUGAAUAUUUCAGAUCAAA RNA 2: GGGAAUGGAUCCACAUCUACGAAUUCGUUUUUGAUCUGAAAUAUUCAGUGAUCUGCAGAUCGGAAGAGCACACGU | 17.8 ± 2.45
2 | target 3 A18G,U20A (mixed) RNA 1: CACCCGUGCAAAAUUGCAGGGGUCUAAAACGACCUGAAUAUUUCAGAUCAAA RNA 2: GGGAAUGGAUCCACAUCUACGAAUUCGUUUUAGGUCUGAAAUAUUCAGGUCUGCAGAUCGGAAGAGCACACGU | 83.5 ± 36.5
3 | target 3 insA 3' of 7,insA 3' of 6 (mixed) RNA 1: CACCCGUGCAAAAUUGCAGGGGUCUAAAACGACCUGAAUAUUUCAGAUCAAA RNA 2: GGGAAUGGAUCCACAUCUACGAAUUCGUUUUUGAUCUGAAAUAUUACAAGGUCUGCAGAUCGGAAGAGCACACGU | 23.7 ± 2.65
4 | target 3 complement block 3-6 (mixed) RNA 1: CACCCGUGCAAAAUUGCAGGGGUCUAAAACGACCUGAAUAUUUCAGAUCAAA RNA 2: GGGAAUGGAUCCACAUCUACGAAUUCGUUUUUGAUCUGAAAUAUUGUCCUCUGCAGAUCGGAAGAGCACACGU | 57 ± 6
5 | target 3 insA 3' of 21,insC 3' of 20 (mixed) RNA 1: CACCCGUGCAAAAUUGCAGGGGUCUAAAACGACCUGAAUAUUUCAGAUCAAA RNA 2: GGGAAUGGAUCCACAUCUACGAAUUCGUUUUAUCGAUCUGAAAUAUUCAGGUCUGCAGAUCGGAAGAGCACACGU | 73.5 ± 20.5
6 | target 3 U7A,A9G (mixed) RNA 1: CACCCGUGCAAAAUUGCAGGGGUCUAAAACGACCUGAAUAUUUCAGAUCAAA RNA 2: GGGAAUGGAUCCACAUCUACGAAUUCGUUUUUGAUCUGAAAUGUACAGGUCUGCAGAUCGGAAGAGCACACGU | 97 ± 17.5
7 | target 3 insA 3' of 16,insA 3' of 2 (mixed) RNA 1: CACCCGUGCAAAAUUGCAGGGGUCUAAAACGACCUGAAUAUUUCAGAUCAAA RNA 2: GGGAAUGGAUCCACAUCUACGAAUUCGUUUUUGAUCAUGAAAUAUUCAGGUACUGCAGAUCGGAAGAGCACACGU | 84.5 ± 25.5
8 | target 1 insU 3' of 21,insA 3' of 2 (mixed) RNA 1: CACCCGUGCAAAAAUGCAGGGGUCUAAAACUGAGCGGAUAACCUCUCUAUGG RNA 2: GGGAAUGGAUCCACAUCUACGAAUUCGUACCUAUAGAGAGGUUAUCCGCUCAACCGAGAUCGGAAGAGCACACGU | 26.8 ± 2.8
9 | target 3 insU 3' of 6,insA 3' of 4 (mixed) RNA 1: CACCCGUGCAAAAUUGCAGGGGUCUAAAACGACCUGAAUAUUUCAGAUCAAA RNA 2: GGGAAUGGAUCCACAUCUACGAAUUCGUUUUUGAUCUGAAAUAUUCUAGAGUCUGCAGAUCGGAAGAGCACACGU | 19.4 ± 3.6
10 | target 3 A11G (mixed) RNA 1: CACCCGUGCAAAAUUGCAGGGGUCUAAAACGACCUGAAUAUUUCAGAUCAAA RNA 2: GGGAAUGGAUCCACAUCUACGAAUUCGUUUUUGAUCUGAAGUAUUCAGGUCUGCAGAUCGGAAGAGCACACGU | 57 ± 11.5
11 | target 3 insU 3' of 22,insG 3' of 8 (mixed) RNA 1: CACCCGUGCAAAAUUGCAGGGGUCUAAAACGACCUGAAUAUUUCAGAUCAAA RNA 2: GGGAAUGGAUCCACAUCUACGAAUUCGUUUUUUGAUCUGAAAUAUGUCAGGUCUGCAGAUCGGAAGAGCACACGU | 50.5 ± 11.5
12 | target 3 insA 3' of 3,insU 3' of 3 (mixed) RNA 1: CACCCGUGCAAAAUUGCAGGGGUCUAAAACGACCUGAAUAUUUCAGAUCAAA RNA 2: GGGAAUGGAUCCACAUCUACGAAUUCGUUUUUGAUCUGAAAUAUUCAGGAUUCUGCAGAUCGGAAGAGCACACGU | 27.9 ± 2.9
13 | target 3 insU 3' of 4,insA 3' of 2 (mixed) RNA 1: CACCCGUGCAAAAUUGCAGGGGUCUAAAACGACCUGAAUAUUUCAGAUCAAA RNA 2: GGGAAUGGAUCCACAUCUACGAAUUCGUUUUUGAUCUGAAAUAUUCAGUGUACUGCAGAUCGGAAGAGCACACGU | 4.65 ± 0.75
14 | target 3 complement block 6-8 (mixed) RNA 1: CACCCGUGCAAAAUUGCAGGGGUCUAAAACGACCUGAAUAUUUCAGAUCAAA RNA 2: GGGAAUGGAUCCACAUCUACGAAUUCGUUUUUGAUCUGAAAUAAAGAGGUCUGCAGAUCGGAAGAGCACACGU | 102 ± 23.5
15 | target 3 A5G,U22A (mixed) RNA 1: CACCCGUGCAAAAUUGCAGGGGUCUAAAACGACCUGAAUAUUUCAGAUCAAA RNA 2: GGGAAUGGAUCCACAUCUACGAAUUCGUUAUUGAUCUGAAAUAUUCGGGUCUGCAGAUCGGAAGAGCACACGU | 21.6 ± 2.85
16 | target 3 insC 3' of 8,insU 3' of 4 (mixed) RNA 1: CACCCGUGCAAAAUUGCAGGGGUCUAAAACGACCUGAAUAUUUCAGAUCAAA RNA 2: GGGAAUGGAUCCACAUCUACGAAUUCGUUUUUGAUCUGAAAUAUCUCAGUGUCUGCAGAUCGGAAGAGCACACGU | 105 ± 42
17 | target 3 G4U,U22A (mixed) RNA 1: CACCCGUGCAAAAUUGCAGGGGUCUAAAACGACCUGAAUAUUUCAGAUCAAA RNA 2: GGGAAUGGAUCCACAUCUACGAAUUCGUUAUUGAUCUGAAAUAUUCAUGUCUGCAGAUCGGAAGAGCACACGU | 4.45 ± 0.435
18 | target 3 insA 3' of 19,insU 3' of 1 (mixed) RNA 1: CACCCGUGCAAAAUUGCAGGGGUCUAAAACGACCUGAAUAUUUCAGAUCAAA RNA 2: GGGAAUGGAUCCACAUCUACGAAUUCGUUUUUGAAUCUGAAAUAUUCAGGUCUUGCAGAUCGGAAGAGCACACGU | 68 ± 21
19 | target 1 C6A,C7G (mixed) RNA 1: CACCCGUGCAAAAAUGCAGGGGUCUAAAACUGAGCGGAUAACCUCUCUAUGG RNA 2: GGGAAUGGAUCCACAUCUACGAAUUCGUACCAUAGAGAGGUUAUGAGCUCACCGAGAUCGGAAGAGCACACGU | 6.86 ± 0.18
20 | target 3 insA 3' of 14,insA 3' of 6 (mixed) RNA 1: CACCCGUGCAAAAUUGCAGGGGUCUAAAACGACCUGAAUAUUUCAGAUCAAA RNA 2: GGGAAUGGAUCCACAUCUACGAAUUCGUUUUUGAUCUGAAAAUAUUCAAGGUCUGCAGAUCGGAAGAGCACACGU | 90.5 ± 25
21 | target 3 G4C,U22C (mixed) RNA 1: CACCCGUGCAAAAUUGCAGGGGUCUAAAACGACCUGAAUAUUUCAGAUCAAA RNA 2: GGGAAUGGAUCCACAUCUACGAAUUCGUUCUUGAUCUGAAAUAUUCACGUCUGCAGAUCGGAAGAGCACACGU | 13 ± 2.15
22 | target 3 G4C,U20C (mixed) RNA 1: CACCCGUGCAAAAUUGCAGGGGUCUAAAACGACCUGAAUAUUUCAGAUCAAA RNA 2: GGGAAUGGAUCCACAUCUACGAAUUCGUUUUCGAUCUGAAAUAUUCACGUCUGCAGAUCGGAAGAGCACACGU | 57 ± 12
23 | target 3 insA 3' of 8,insG 3' of 8 (mixed) RNA 1: CACCCGUGCAAAAUUGCAGGGGUCUAAAACGACCUGAAUAUUUCAGAUCAAA RNA 2: GGGAAUGGAUCCACAUCUACGAAUUCGUUUUUGAUCUGAAAUAUAGUCAGGUCUGCAGAUCGGAAGAGCACACGU | 53.5 ± 8.5
24 | target 3 del4,del6 (mixed) RNA 1: CACCCGUGCAAAAUUGCAGGGGUCUAAAACGACCUGAAUAUUUCAGAUCAAA RNA 2: GGGAAUGGAUCCACAUCUACGAAUUCGUUUUUGAUCUGAAAUAUUAGUCUGCAGAUCGGAAGAGCACACGU | 19 ± 3.25
25 | target 3 insC 3' of 9,insC 3' of 5 (mixed) RNA 1: CACCCGUGCAAAAUUGCAGGGGUCUAAAACGACCUGAAUAUUUCAGAUCAAA RNA 2: GGGAAUGGAUCCACAUCUACGAAUUCGUUUUUGAUCUGAAAUACUUCACGGUCUGCAGAUCGGAAGAGCACACGU | 99 ± 21
26 | target 3 G4C,A11G (mixed) RNA 1: CACCCGUGCAAAAUUGCAGGGGUCUAAAACGACCUGAAUAUUUCAGAUCAAA RNA 2: GGGAAUGGAUCCACAUCUACGAAUUCGUUUUUGAUCUGAAGUAUUCACGUCUGCAGAUCGGAAGAGCACACGU | 54.5 ± 18.5
27 | target 3 insC 3' of 13,insU 3' of 3 (mixed) RNA 1: CACCCGUGCAAAAUUGCAGGGGUCUAAAACGACCUGAAUAUUUCAGAUCAAA RNA 2: GGGAAUGGAUCCACAUCUACGAAUUCGUUUUUGAUCUGACAAUAUUCAGGUUCUGCAGAUCGGAAGAGCACACGU | 32.5 ± 8
28 | target 3 insA 3' of 21,insU 3' of 5 (mixed) RNA 1: CACCCGUGCAAAAUUGCAGGGGUCUAAAACGACCUGAAUAUUUCAGAUCAAA RNA 2: GGGAAUGGAUCCACAUCUACGAAUUCGUUUUAUGAUCUGAAAUAUUCAUGGUCUGCAGAUCGGAAGAGCACACGU | 44 ± 4.65
